Test results from patent US8206955B2, “Production of monatin and monatin precursors” (Cargill, Incorporated, priority 2003, dated 2012).

B1: E. coli KHG: 4-hydroxy-2-oxoglutarate glyoxylate lyase (KHG aldolase) from E. coli (protein, UniProt P0A955 1-213, looked up)
KHG/KDPG aldolase: MKNWKTSAESILTTGPVVPVIVVKKLEHAVPMAKALVAGGVRVLEVTLRTECAVDAIRAIAKEVPEAIVGAGTVLNPQQLAEVTEAGAQFAISPGLTEPLLKAATEGTIPLIPGISTVSELMLGMDYGLKEFKFFPAEANGGVKALQAIAGPFSQVRFCPTGGISPANYRDYLALKSVLCIGGSWLVPADALEAGDYDRITKLAREAVEGAKL
B2: S. meliloti tatA: Sinorhizobium meliloti tyrosine aminotransferase (tatA, SEQ ID NOS: 1 and 2) (protein, listed as Sinorhizobium meliloti)
chain: MFDALARQADDPLLFLIGLFRKDERPGKVDLGVGVYRDETGRTPIFRAVKAAEKRLLETQDSKAYIGPEGDLVFLDRLWELVGGDTIERSHVAGVQTPGGSGALRLAADLIARMGGRGIWLGLPSWPNHAPIFKAAGLDIATYDFFDIPSQSVIFDNLVSALEGAASGDAVLLHASCHNPTGGVLSEAQWMEIAALVAERGLLPLVDLAYQGFGRGLDQDVAGLRHLLGVVPEALVAVSCSKSFGLYRERAGAIFARTSSTASADRVRSNLAGLARTSYSMPPDHGAAVVRTILDDPELRRDWTEELETMRLRMTGLRRSLAEGLRTRWQSLGAVADQEGMFSMLPLSEAEVMRLRTEHGIYMPASGRINIAGLKTAEAAEIAGKFTSL
B3: B. subtilis D-aminotransf.: Bacillus subtilis D-alanine aminotransferase (dat) (protein, UniProt O07597 1-282, looked up)
D-alanine aminotransferase: MKVLVNGRLIGRSEASIDLEDRGYQFGDGIYEVIRVYKGVLFGLREHAERFFRSAAEIGISLPFSIEDLEWDLQKLVQENAVSEGAVYIQTTRGVAPRKHQYEAGLEPQTTAYTFTVKKPEQEQAYGVAAITDEDLRWLRCDIKSLNLLYNVMTKQRAYEAGAFEAILLRDGVVTEGTSSNVYAVINGTVRTHPANRLILNGITRMNILGLIEKNGIKLDETPVSEEELKQAEEIFISSTTAEIIPVVTLDGQSIGSGKPGPVTKQLQAAFQESIQQAASIS
B4: L. major bsat: Leishmania major broad substrate aminotransferase (bsat, SEQ ID NOS: 7 and 8) (protein)
chain: MSMQAAMTTAERWQKIQAQAPDVIFDLAKRAAAAKGPKANLVIGAYRDEQGRPYPLRVVRKAEQLLLDMNLDYEYLPISGYQPFIDEAVKIIYGNTVELENLVAVQTLSGTGAVSLGAKLLTRVFDAETTPIYLSDPTWPNHYGVVKAAGWKNICTYAYYDPKTVSLNFEGMKKDILAAPDGSVFILHQCAHNPTGVDPSQEQWNEIASLMLAKHHQVFFDSAYQGYASGSLDTDAYAARLFARRGIEVLLAQSFSKNMGLYSERAGTLSLLLKDKTKRADVKSVMDSLIREEYTCPPAHGARLAHLILSNNELRKEWEAELSAMAERIRTMRRTVYDELLRLQTPGSWEHVINQIGMFSFLGLSKAQCEYCQNHNIFITVSGRANMAGLTHETALMLAQTINDAVRNVNRE
modifications: Leishmania major

Experiments:
Type in all cases: biochemical
[1] = in vitro monatin production with aldolase and aminotransferase; settings: 30 μg/mL KHG enzyme, 50 mM Tris pH 8.3, saturating tryptophan, one hour
[2] = tryptophan aminotransferase activity, production of indole-pyruvic acid; settings: for Specific Activity: 5 mM L-tryptophan, 30 minutes at 30° C.; for tryptophan aminotransferase activity (in words): recombinant clones expressed in E. coli
Experimental: (§1) Cell extracts were analyzed by SDS-PAGE, and assayed for tryptophan aminotransferase activity by following production of indole-pyruvic acid using the following protocol. One mL reactions were carried out in 50 mM sodium tetraborate (pH 8.5), 0.5 mM EDTA, 0.5 mM sodium arsenate, 50 μM pyridoxal phosphate, 5 mM α-ketoglutarate, and 5 mM L-tryptophan. The reactions were initiated by the addition of cell free extracts or purified enzyme and were incubated 30 minutes at 30° C. 20% TCA (200 μL) was added to stop the reaction, and the precipitated protein was removed by centrifugation. The absorbance at 327 nm was measured and compared to a standard curve of freshly prepared indole-3-pyruvate in the assay buffer. Control reactions without the substrate tryptophan or using cell-free extracts from clones transformed with pET30a alone were also performed.
Due to background from the native E. coli aminotransferases in cell extracts, the recombinant fusion proteins each containing an aminotransferase protein fused to the pET30 amino terminal HIS6-Tag/S-Tag (6×HIS tag disclosed as SEQ ID NO: 90) were purified using immobilized metal affinity chromatography with His-Bind cartridges following manufacturer's protocols (Novagen, Madison, Wis.). The HIS6-Tag sequence (SEQ ID NO: 90) of the fusion proteins binds to the divalent Ni^2+ cations immobilized on IDA-based His-Bind resin. The eluent fractions were desalted on PD-10 (Amersham Biosciences, Piscataway, N.J.) columns and eluted in 50 mM Tris, pH 7.0. Purified proteins were analyzed by SDS-PAGE and assayed for aminotransferase activity.
(§2) Table 1 lists the specific activities measured in micrograms of indole-3-pyruvate (I3P) formed per milligram protein per minute. […] In these cases a ‘>’ precedes the specific activity number.

[3] = monatin aminotransferase assay (loss of monatin by LC/MS)
Experimental: Transamination activity. Monatin aminotransferase assays were conducted with the aspartate aminotransferase (AspC) from E. coli, the tyrosine aminotransferase (TyrB) from E. coli, the broad substrate aminotransferase (BSAT) from L. major, and the two commercially available porcine glutamate-oxaloacetate aminotransferases described in Example 1. Both oxaloacetate and alpha-ketoglutarate were tested as the amino acceptor. The assay mixture contained (in 0.5 mL) 50 mM Tris-HCl, pH 8.0, 0.05 mM PLP, 5 mM amino acceptor, 5 mM monatin, and 25 μg of aminotransferase. The assays were incubated at 30° C. for 30 minutes, and the reactions were stopped by addition of 0.5 mL isopropyl alcohol. The loss of monatin was monitored by LC/MS (Example 6). […] The relative activity with oxaloacetate was: BSAT>AspC>porcine type IIa>porcine type I=TyrB. The relative activity with alpha-ketoglutarate was: BSAT>AspC>porcine type I>porcine type IIa>TyrB.

[4] = aminotransferase activity using D-tryptophan as substrate; settings: purified (P)
Experimental: as §1, with “One mL reactions were carried out in 50 mM sodium tetraborate (pH 8.5), 0.5 mM EDTA, 0.5 mM sodium arsenate, 50 μM pyridoxal phosphate, 5 mM α-ketoglutarate, and 5 mM L-tryptophan.” left out
as §2

Molecule | monatin produced [1] | Specific Activity ([2]; cell extracts (CE)) | Specific Activity ([2]; purified (P)) | tryptophan aminotransferase activity (in words) [2] | conversion of monatin to MP (in words) ([3]; similar assays, conditions tested) | Specific Activity [4] | monatin transamination activity (in words) ([3]; oxaloacetate as the amino acceptor, 5 mM monatin, 25 μg aminotransferase, 30° C. 30 minutes)
B1 | 3000 ng/mL |  |  |  |  |  | 
B2 |  | >28.6 μg I3P/mg protein/min | >931 μg I3P/mg protein/min | significant levels of tryptophan aminotransferase activity | did not appear to detectably convert monatin to MP |  | 
B3 |  |  |  |  |  | 2.7 μg I3P/mg protein/min | 
B4 |  | >49.3 μg I3P/mg protein/min | >4280 μg I3P/mg protein/min | significant levels of tryptophan aminotransferase activity |  |  | highest amount of activity
